# Results reported in IntAct's records for PubMed 16717130.
# B1: Serine/threonine-protein kinase PAK 1 (Homo sapiens), Q13153 (parent)
# chain: MSNNGLDIQDKPPAPPMRNTSTMIGAGSKDAGTLNHGSKPLPPNPEEKKKKDRFYRSILPGDKTNKKKEKERPEISLPSDFEHTIHVGFDAVTGEFTGMPEQWARLLQTSNITKSEQKKNPQAVLDVLEFYNSKKTSNSQKYMSFTDKSAEDYNSSNALNVKAVSETPAVPPVSEDEDDDDDDATPPPVIAPRPEHTKSVYTRSVIEPLPVTPTRDVATSPISPTENNTTPPDALTRNTEKQKKKPKMSDEEILEKLRSIVSVGDPKKKYTRFEKIGQGASGTVYTAMDVATGQEVAIKQMNLQQQPKKELIINEILVMRENKNPNIVNYLDSYLVGDELWVVMEYLAGGSLTDVVTETCMDEGQIAAVCRECLQALEFLHSNQVIHRDIKSDNILLGMDGSVKLTDFGFCAQITPEQSKRSTMVGTPYWMAPEVVTRKAYGPKVDIWSLGIMAIEMIEGEPPYLNENPLRALYLIATNGTPELQNPEKLSAIFRDFLNRCLEMDVEKRGSAKELLQHQFLKIAKPLSSLTPLIAAAKEATKNNH
# Variants of: B1
# Conditions: with paxi_chick PXN
row,Variant,effect of a mutation on the interaction
1,K299A,decreasing interaction
2,L107F,increasing interaction
